From US20220273713A1, “METHOD OF INHIBITING OR ACTIVATING GAMMA DELTA T CELLS” (The University of Melbourne, priority 2019, published 2022) come the findings set out here.

Where “and” joins values, the source holds several entries; their conditions need not be identical. Equal entries are not always repeated. Entries after “also recorded” stand apart in the source; their conditions may differ.

Assay [1] has as its target 'hybrid' Vγ9+Vδ1+ γδTCR (TCR #6 γ-chain paired with an irrelevant Vδ1+ chain), soluble ectodomain (human). Nature of the assay: SPR, γδTCR ectodomain immobilized on streptavidin chip, soluble BTN2A1 200-3.1 µM, KD derived at equilibrium. On the technique in general: Surface plasmon resonance follows binding to a sensor surface in real time, without labels.
Assay [2] shares this target. Nature of the assay: surface plasmon resonance, binding at equilibrium (saturation plot with Scatchard inset, Expt. 1 and Expt. 2), soluble BTN2A1 200-3.1 µM over immobilized hybrid TCR.
For assay [3], the target named is T1, human BTN2A2, isoform 1 (human, UniProt Q8WVV5 33-523).
T1 construct: whole, on cells
T1 sequence (looked up): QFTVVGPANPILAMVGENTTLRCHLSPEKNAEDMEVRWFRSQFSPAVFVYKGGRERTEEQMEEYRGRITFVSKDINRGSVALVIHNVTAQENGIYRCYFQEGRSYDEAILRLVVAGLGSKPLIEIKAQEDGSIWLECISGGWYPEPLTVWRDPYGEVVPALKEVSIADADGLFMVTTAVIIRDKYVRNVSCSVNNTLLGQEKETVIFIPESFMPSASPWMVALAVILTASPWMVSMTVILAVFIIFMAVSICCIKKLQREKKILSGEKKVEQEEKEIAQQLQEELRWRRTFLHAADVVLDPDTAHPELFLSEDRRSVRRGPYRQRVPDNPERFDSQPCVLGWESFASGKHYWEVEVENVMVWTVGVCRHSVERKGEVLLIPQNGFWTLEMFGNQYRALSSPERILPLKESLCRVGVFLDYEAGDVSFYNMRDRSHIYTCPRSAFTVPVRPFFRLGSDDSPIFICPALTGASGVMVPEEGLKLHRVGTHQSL
The assay can be described thus: told in the legend of FIG. 24; data in FIG. 11 (ELISA, transfected cells).
Procedure: Purified recombinant proteins (0.2-20 μg/ml) were immobilized in microplate wells in PBS buffer overnight at 4° C. Non-specific binding was then blocked by incubation in PBS containing 0.05% tween 20 plus 5% skim milk powder or 0.5% (w/v) bovine serum albumin (BSA). The wells were then incubated for 60 minutes at room temperature in the presence of antibodies at 2-5 μg/mL in PBS/0.05% tween-20/2% skim milk powder or 0.5% BSA, followed by washing in PBS/0.05% tween-20. Plates were then incubated with HRP-labelled sheep anti-mouse IgG secondary antibody (Chemicon), or goat anti-mouse IgG secondary antibody (Millipore) followed by detection using 3,3′,5,5′-tetramethylbenzidine substrate (Sigma) and absorbance was measured at 450 nm using a plate reader.

The subject of assay [4] is Vγ9Vδ2 cells. Nature of the assay: Luminex (Vγ9Vδ2): cytokine/chemokine secretion by pre-expanded Vγ9Vδ2 cells.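 Note: Vγ9Vδ2 cells purified from PBMC, activated 48 h with CD3 and CD28 plus IL-2, expanded 14 days in IL-2, then thawed and rested overnight in IL-2.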 It counts as cell-based, human.
Procedure: Briefly, Vγ9Vδ2 cells were isolated from 1 healthy donor (Red Cross Australia) and 1 cancer patient derived PBMC using TCRγ/δ+ T Cell Isolation Kit (Miltenyi). Cells were stimulated for 48 hours in TCRPMI supplemented with 100u/ml IL-2, CD3 (10 μg/ml) and CD28 (1 μg/ml). Cells were washed and grown for 14 days in TCRPMI supplemented with 100u/ml IL-2 at 37 degrees C. and 5% CO2, and then frozen down. […] Vγ9Vδ2 were defrosted and rested overnight in TCRPMI supplemented with 50u/ml IL-2 at 37 degrees C. and 5% CO2. […] All samples were run with appropriate controls and standards.
The test system of assay [5] is γδ T cells. Nature of the assay: Identification of BTN2A1 agonistic antibodies: CD25 and interferon γ of expanded γδ T cells. The class given is cell-based, human. Conditions: 10 μg/ml antibody overnight, vs isotype control BM4. The procedure: In some experiments γδ T cells were enriched by MACS using PE-Cy7-conjugated anti-γδTCR followed by anti-phycoerythrin-mediated magnetic bead purification (Miltenyi Biotec). After enrichment CD3+Vδ2+ γδ T cells were further purified by sorting using an Aria III (BD). Enriched γδ T cells were stimulated in vitro for 48 h with plate-bound anti-CD3ε (OKT3, 10 ug/ml, Bio-X-Cell), soluble anti-CD28 (CD28.2, 1 ug/ml, BD Pharmingen), phytohemagglutinin (0.5 μg/ml, Sigma), IL-15 (50 ng/ml), and recombinant human IL-2 (100 U/ml, PeproTech), followed by maintenance with IL-2 and IL-15 for 14-21 d. Cells were cultured in complete medium consisting of a 50:50 (v/v) mixture of RPMI-1640 and AIM-V (Invitrogen) supplemented with 10% (v/v) FCS (JRH Biosciences), penicillin (100 U/ml), streptomycin (100 μg/ml), Glutamax (2 mM), sodium pyruvate (1 mM), nonessential amino acids (0.1 mM), and HEPES buffer (15 mM), pH 7.2-7.5 (all from Invitrogen Life Technologies), plus 50 μM 2-mercaptoethanol (Sigma-Aldrich).
The inventors screened the panel of antibodies specific for BTN2A1, as described above, to identify those able to agonise BTN2A1. The inventors assessed the ability of anti-BTN2A1 antibodies to activate γδ T cells. The inventors assessed upregulation of CD25 on the surface of previously expanded γδ T cells following culturing the cells with 10 μg/ml anti-BTN2A1 antibodies or isotype control antibody (BM4) overnight.
The inventors additionally measured levels of interferon γ secreted by γδ T cells following culture in the presence of 10 μg/ml anti-BTN2A1 antibodies or isotype control antibody (BM4) overnight. Interferon γ secretion is another indicator of TCR-dependent activation.

The subject of assay [6] is LM-MEL-62 and LM-MEL-75 melanoma cells. The assay can be described thus: Tumor killing/inhibition assay: γδ T cells with melanoma cells 2:1, MTS and CD25. The class given is cell-based, human. The settings on record: γδ T cells : melanoma cells 2:1, three days, antibody 10 ug/ml. Here is the method:
In the following experiments, γδ T cells were enriched by MACS using PE-Cy7-conjugated anti-γδTCR followed by anti-phycoerythrin-mediated magnetic bead purification (Miltenyi Biotec). After enrichment CD3^+ Vδ2^+γδ T cells were further purified by sorting using an Aria III (BD). […] LM-MEL-62 and LM-MEL-75 melanoma cells were plated out 1×10^4 per well in a 96 well flat-bottom plate In RPMI1640 media supplemented with 10% FBS and left to adhere overnight. […] All conditions were repeated in triplicate. Cells were incubated at 37 degrees and on day 3 Vd2+ cells were acquired by flow cytometry. Live cells were gated and activation determined by analysis of CD25 expression. Melanoma cell viability was determined by MTS assay. MTS reagent was added to RPMI media at a 1:5 ratio and 100 ul added per well. Cells were incubated at 37 degrees for 30 minutes and the plate was read on a Spectrostar nano plate reader at 490 nm. […] Cultures were performed with γδ T cells and melanoma cells (LM-MEL-75 or LM-MEL-62) in a 2:1 ratio.

Assay [7] deals with Vγ9Vδ2 cells. Nature of the assay: Flow cytometry: CD25 on Vγ9Vδ2 cells without phosphoantigen or APCs. The class given is cell-based, human. Conditions: no addition of APCs or phosphoantigen; listed as 253. The source says:
Vγ9Vδ2 cells were stained for CD3, Vδ2, CD25 and live dead viability dye as previously described and analysed on a Canto flow cytometer (BD). Cells were gated on lymphocytes, single cells, live cells, CD3+ Vδ2+, and activation determined based on CD25 expression.
In general terms: Flow cytometry measures light scatter and fluorescence of single cells or particles in a stream.

Assay [8] concerns the target T2, human BTN3A1, isoform 1, on cells (human, UniProt O00481 30-513).
T2 construct: whole, on cells
The assay can be described thus: FRET between C-terminal CFP/YFP tags on co-transfected NIH-3T3 cells, flow cytometry (FIG. 5D, FIG. 20A).
Source text: FRET was detected in a compensated yellow 670/30 channel. […] The frequency of cells identified as FRET⁺ was examined on gated CFP⁺YFP⁺NIH-3T3 cells for dual tranfectants, and either CFP⁺ or YFP⁺ for single transfectants.

Setting [9] is: γδT cells from a healthy donor, 16 hrs, antibodies 10 μg/ml, Zoledronic acid 4 μM, HMBPP 0.5 ng/ml, duplicates, 0 set to 0.1.
The mark [10] stands for this setting: γδT cells from a healthy donor, 16 hrs, antibodies 10 μg/ml, Zoledronic acid 4 μM, HMBPP 0.5 ng/ml, duplicates, 0 set to 0.1, listed as 253.
Where [11] appears, read: γδT cells from patient 1 (melanoma patient), 16 hrs, antibodies 10 μg/ml, Zoledronic acid 4 μM, HMBPP 0.5 ng/ml, duplicates, 0 set to 0.1.
Where [12] appears, read: γδT cells from patient 1 (melanoma patient), 16 hrs, antibodies 10 μg/ml, Zoledronic acid 4 μM, HMBPP 0.5 ng/ml, duplicates, 0 set to 0.1, listed as 253.

Chain of 'hybrid' Vγ9+Vδ1+ γδTCR (TCR #6 γ-chain paired with an irrelevant Vδ1+ chain), soluble ectodomain (human) (TCR gamma, as listed by the source): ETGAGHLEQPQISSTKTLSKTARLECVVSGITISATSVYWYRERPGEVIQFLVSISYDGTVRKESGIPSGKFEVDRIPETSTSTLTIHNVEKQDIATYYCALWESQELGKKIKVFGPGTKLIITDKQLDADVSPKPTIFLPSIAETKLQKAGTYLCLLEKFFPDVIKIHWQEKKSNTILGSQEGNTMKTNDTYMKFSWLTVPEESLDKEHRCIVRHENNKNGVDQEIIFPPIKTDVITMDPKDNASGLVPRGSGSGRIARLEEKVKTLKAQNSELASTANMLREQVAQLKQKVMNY
T2 sequence (O00481 30-513 limits assumed): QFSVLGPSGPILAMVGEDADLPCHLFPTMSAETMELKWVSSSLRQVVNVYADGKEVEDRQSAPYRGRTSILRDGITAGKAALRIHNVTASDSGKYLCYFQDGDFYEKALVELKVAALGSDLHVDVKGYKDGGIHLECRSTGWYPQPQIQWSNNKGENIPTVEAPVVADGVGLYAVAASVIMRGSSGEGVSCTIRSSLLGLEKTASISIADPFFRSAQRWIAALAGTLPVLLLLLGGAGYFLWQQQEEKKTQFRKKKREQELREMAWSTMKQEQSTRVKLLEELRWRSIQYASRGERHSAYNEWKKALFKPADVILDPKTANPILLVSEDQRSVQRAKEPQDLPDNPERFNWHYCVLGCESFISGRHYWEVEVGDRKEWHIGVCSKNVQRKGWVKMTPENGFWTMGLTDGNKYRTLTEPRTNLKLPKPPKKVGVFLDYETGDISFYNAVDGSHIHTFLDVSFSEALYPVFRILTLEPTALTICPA

Broadly, the Kd is the equilibrium constant for the complex coming apart. For the molecule “soluble BTN2A1 ectodomain (IgV and IgC domains; Gln29 to Ser245) with C-terminal linker, Avi-tag and His6-tag (ligand)”, the Kd in assay [1] came out at 50 µM; in assay [2], 50.4 µM.

B1: anti-BTN2A1 antibody 259 (antibody, V domains shown)
VH: EVQLLESGGGLVQPGGSLRLSCAASGFTFSSYAMQWVRQAPGKGLEWVSRIGPSGGGTMYADSVKGRFTISRDNSKNTLYLQMNSLRAEDMAVYYCARDLGGLSVLFDYWGQGTLVTVSS
VL: QSELTQPPSASETPGQRVTISCSGSSSNIGSNTVSWFQQLPGSAPRLLIYNDHRRPSGVPDRFSGSKSGTSASLVISGLQSQDEADYYCSAWDDSLNGVVFGGGTKLTVL
For B1, the binding result in assay [3] is given as “no binding”.

B2: antibody 253: agonistic anti-BTN2A1 antibody; VL SEQ ID NO: 148, VH SEQ ID NO: 152 (antibody, V domains shown)
VH: EVQLLESGGGLVQPGGSLRLSCAASGFTFSTYDMYWVRQAPGKGLEWVSYISPSGGLTTYADSVKGRFTISRDNSKNTLYLQMNSLRAEDTAVYYCARDHYDSSGRATNYYYYMDVWGKGTTVTVSS
VL: QSALTQPPSASGTPGQRVTLSCSGSSSNIGSNRVNWYQQLPGTAPKLLIDSNNQRPSGVPDRFSGSKSGTSASLAISGLRSEDEVFYYCAAWDDSVHGPVFGGGTMVTVL
modifications: amino acid sequence of the VH of antibody 253; amino acid sequence of the VL of antibody 253
For B2, the “cytokine/chemokine secretion, in words” value in assay [4] (across both donors) was “weaker stimulus”. For the same molecule, the “cytokine/chemokine secretion, in words” value in assay [4] (cancer patient derived Vγ9Vδ2 cells, vs isotype (BM4)) is given as “No increase in any analyte”. In assay [4] (healthy donor derived Vγ9Vδ2 cells, vs isotype (BM4)), the “cytokine/chemokine secretion, in words” value was “only small increases in the amounts of secreted GMCSF”. In assay [4] (setting [9]), this molecule displayed an ICAM-1 of 0.1 pg/mL, an IFNγ of 0.1 pg/mL, an IL-4 of 0.1 pg/mL and an IL-8 of 0.1 pg/mL. In assay [4] (setting [9]), this molecule returned an IL-13 of 0.1 pg/mL, an IL-17A of 0.1 pg/mL, a TNFα of 0.1 pg/mL and a sE-selectin of 0.1 pg/mL. The sP-Selectin in assay [4] (setting [9]) worked out at 0.1 pg/mL. Also, in assay [4] (setting [10]), the MIP-1a was 16.32 pg/mL and 19.57 pg/mL; the MIP-1b was 117.31 pg/mL and 143.67 pg/mL. Moreover, in assay [4] (setting [11]), the IL-4 was found to be 0.1 pg/mL, the IL-8 was determined as 0.1 pg/mL, the IL-17A was 0.1 pg/mL and the TNFα is 0.1 pg/mL. This molecule came in with a sP-Selectin in assay [4] (setting [11]) of 0.1 pg/mL. For the same molecule, in assay [4] (setting [12]), the GMCSF is 32.02 pg/mL and 33.23 pg/mL; the ICAM-1 is 480.81 pg/mL and 405.75 pg/mL; the IFNγ was 6.87 pg/mL and 3.45 pg/mL; the IL-13 is 45.16 pg/mL and 36.92 pg/mL. Besides, in assay [4] (setting [12]), the MIP-1a was 133.36 pg/mL and 137.25 pg/mL; the MIP-1b was 901.33 pg/mL and 941.65 pg/mL; the sE-selectin is 142.97 pg/mL and 101.78 pg/mL. In assay [5], the “level of secreted interferon γ” value is reported as “increase the level of secreted interferon γ” and the “percentage of γδ T cells expressing CD25” value is reported as “increase the percentage of γδ T cells expressing CD25”. Moreover, the “CD25 level of expression on γδ T cells in co-culture” value in assay [6] is recorded as “upregulated”. Besides, the “activation of Vγ9Vδ2 cells by CD25 upregulation” value in assay [7] is recorded as “activation of Vγ9Vδ2 independent of phosphoantigen; also recorded: can mimic phosphoantigen mediated activation to various degrees”.

B3: human BTNL8, isoform 1, on cells (ligand, UniProt Q6UX41 18-500, looked up)
chain: QWQVFGPDKPVQALVGEDAAFSCFLSPKTNAEAMEVRFFRGQFSSVVHLYRDGKDQPFMQMPQYQGRTKLVKDSIAEGRISLRLENITVLDAGLYGCRISSQSYYQKAIWELQVSALGSVPLISITGYVDRDIQLLCQSSGWFPRPTAKWKGPQGQDLSTDSRTNRDMHGLFDVEISLTVQENAGSISCSMRHAHLSREVESRVQIGDTFFEPISWHLATKVLGILCCGLFFGIVGLKIFFSKFQWKIQAELDWRRKHGQAELRDARKHAVEVTLDPETAHPKLCVSDLKTVTHRKAPQEVPHSEKRFTRKSVVASQSFQAGKHYWEVDGGHNKRWRVGVCRDDVDRRKEYVTLSPDHGYWVLRLNGEHLYFTLNPRFISVFPRTPPTKIGVFLDYECGTISFFNINDQSLIYTLTCRFEGLLRPYIEYPSYNEQNGTPIVICPVTQESEKEASWQRASAIPETSNSESSSQATTPFLPRGEM
notes: whole, on cells; also called B7NL8
Regarding B3, the binding result in assay [8] is on record as “no binding”.
